Usually Kd stands for the equilibrium constant for the complex coming apart. A high value points to a looser complex.

From US20220177549A1 (INVETX, published 2022) come the findings set out here.

The target in this experiment is T1, equine FcRn complex (equine, UniProt F6XZ61 19-292; P30441 21-118).
T1 construct: Heterodimer of p51 extracellular domain (Avi-tag, 8x His) and Flag-tagged beta-2-microglobulin from HEK293 cells; also called horse FcRn
In words: SPR (Biacore 8K+), pH 5.9, 25 C; FcRn captured by anti-His, IgG as analyte; 1:1 kinetic model.

B1: Equine G426Y (antibody)
chain: APELLGGPSVFIFPPNPKDTLMITRTPEVTCVVVDVSQENPDVKFNWYMDGVEVRTATTRPKEEQFNSTYRVVSVLRIQHQDWLSGKEFKCKVNNQALPQPIERTITKTKGRSQEPQVYVLAPHPDELSKSKVSVTCLVKDFYPPEINIEWQSNGQPELETKYSTTQAQQDSDGSYFLYSKLSVDRNRWQQGTTFTCYVMHEALHNHYTQKNVSKNPGK
For B1, the “Fold increase over wild-type KD” value turned out to be 2.8 fold and the equilibrium dissociation constant (Kd) came to 52.3 nM.
